Assays:
HLA-A*02:01 [1] = assay: IEDB peptide-MHC binding, purified MHC/competitive/fluorescence; filed as Kd, often an IC50 or EC50 that approximates it; ≥ and ≤ were set here for values at or beyond the usual limits of such assays; conditions: source organism: Homo sapiens
HLA-B*39:01 = assay: as above; conditions: source organism: Homo sapiens
HLA-B*18:01 [2] = assay: as above
HLA-B*15:17 = assay: as above
HLA-B*51:01 = assay: as above
HLA-A*69:01 = assay: as above; conditions: source organism: Homo sapiens
HLA-B*15:01 = assay: as above; conditions: source organism: Homo sapiens
HLA-B*57:01 = assay: as above
HLA-B*46:01 = assay: as above
HLA-A*26:01 = assay: as above
HLA-B*27:03 = assay: as above
HLA-A*24:03 = assay: IEDB peptide-MHC binding, purified MHC/direct/fluorescence; filed as Kd, often an IC50 or EC50 that approximates it; ≥ and ≤ were set here for values at or beyond the usual limits of such assays; conditions: source organism: Mycobacterium tuberculosis variant bovis
HLA-B*44:03 = assay: IEDB peptide-MHC binding, purified MHC/competitive/radioactivity; filed as Kd, often an IC50 or EC50 that approximates it; ≥ and ≤ were set here for values at or beyond the usual limits of such assays
HLA-B*40:01 = assay: as above
HLA-B*44:02 = assay: as above
HLA-B*18:01 [3] = assay: as above
HLA-B*45:01 = assay: as above
HLA-B*40:02 = assay: as above
HLA-A*02:03 = assay: as above; conditions: source organism: Homo sapiens
HLA-A*68:02 = assay: as above; conditions: source organism: Homo sapiens
HLA-A*02:01 [4] = assay: as above
HLA-A*02:01 [5] = assay: IEDB peptide-MHC binding, purified MHC/direct/fluorescence; filed as Kd, often an IC50 or EC50 that approximates it; ≥ and ≤ were set here for values at or beyond the usual limits of such assays; conditions: source organism: Itapua hantavirus
HLA-A*03:01 = assay: as above; conditions: source organism: Araucaria virus
[6] = source organism: Mammarenavirus brazilense
[7] = source organism: Mammarenavirus lassaense
[8] = source organism: SARS coronavirus Tor2
[9] = source organism: Mammarenavirus guanaritoense
[10] = source organism: Araucaria virus
[11] = source organism: Lymphocytic choriomeningitis virus (strain Armstrong)

## IYDFYYLDY
HLA-A*02:01 [1]
  Kd: ≥ 20 µM
HLA-B*39:01
  Kd: ≥ 20 µM
HLA-B*18:01 [2]; source organism: Homo sapiens
  Kd: ≥ 20 µM
HLA-B*15:17; source organism: Homo sapiens
  Kd: ≥ 20 µM
HLA-B*51:01; source organism: Homo sapiens
  Kd: ≥ 20 µM
HLA-A*69:01
  Kd: ≥ 20 µM
HLA-B*15:01
  Kd: ≥ 20 µM
HLA-B*57:01; source organism: Homo sapiens
  Kd: ≥ 20 µM
HLA-B*46:01; source organism: Homo sapiens
  Kd: ≥ 20 µM
HLA-A*26:01; source organism: Homo sapiens
  Kd: ≥ 20 µM
HLA-B*27:03; source organism: Homo sapiens
  Kd: ≥ 20 µM

## LYNTAIVGL
HLA-A*24:03
  Kd: 0.0008 µM

## GDEALRGFL
HLA-B*44:03; [6]
  Kd: ≥ 36.1 µM
HLA-B*40:01; [6]
  Kd: 7.01 µM
HLA-B*44:02; [6]
  Kd: ≥ 47 µM
HLA-B*18:01 [3]; [6]
  Kd: ≥ 50.9 µM
HLA-B*45:01; [6]
  Kd: ≥ 43.7 µM
HLA-B*40:02; [6]
  Kd: 0.826 µM

## FEKHILPFMS
HLA-B*44:03; [7]
  Kd: ≥ 70.1 µM
HLA-B*40:01; [7]
  Kd: ≥ 33.5 µM
HLA-B*44:02; [7]
  Kd: ≥ 70.2 µM
HLA-B*18:01 [3]; [7]
  Kd: ≥ 22.9 µM
HLA-B*45:01; [7]
  Kd: ≥ 22.3 µM
HLA-B*40:02; [7]
  Kd: 0.672 µM

## REAPAHVST
HLA-B*44:03; [8]
  Kd: 8.47 µM
HLA-B*40:01; [8]
  Kd: 0.0468 µM
HLA-B*44:02; [8]
  Kd: 4.58 µM
HLA-B*18:01 [3]; [8]
  Kd: 5.19 µM
HLA-B*45:01; [8]
  Kd: 0.108 µM
HLA-B*40:02; [8]
  Kd: 0.0442 µM

## RELHLSWEV
HLA-B*44:03; [8]
  Kd: 0.0215 µM
HLA-B*40:01; [8]
  Kd: 0.00307 µM
HLA-B*44:02; [8]
  Kd: 0.0877 µM
HLA-B*18:01 [3]; [8]
  Kd: 0.0788 µM
HLA-B*45:01; [8]
  Kd: 0.0177 µM
HLA-B*40:02; [8]
  Kd: 0.00497 µM

## DMEISAYRKL
HLA-A*02:03
  Kd: ≥ 27.6 µM
HLA-A*68:02
  Kd: ≥ 60 µM
HLA-A*02:01 [4]; source organism: Homo sapiens
  Kd: ≥ 58.8 µM

## PECSDSPLVL
HLA-B*44:03; [9]
  Kd: ≥ 70.1 µM
HLA-B*40:01; [9]
  Kd: ≥ 33 µM
HLA-B*44:02; [9]
  Kd: ≥ 70.2 µM
HLA-B*18:01 [3]; [9]
  Kd: 17.3 µM
HLA-B*45:01; [9]
  Kd: ≥ 70 µM
HLA-B*40:02; [9]
  Kd: 3.15 µM

## KLVSLGVNAV
HLA-A*02:01 [4]; source organism: Hepatitis C virus subtype 1b
  Kd: 0.344 µM

## GLSRYVAR
HLA-A*02:01 [4]; source organism: Hepatitis B virus
  Kd: ≥ 50 µM

## FLAAECPFL
HLA-A*02:01 [5]
  Kd: 0.0017 µM
HLA-A*03:01
  Kd: ≥ 20 µM
HLA-B*18:01 [2]; [10]
  Kd: ≥ 20 µM
HLA-B*15:17; [10]
  Kd: ≥ 20 µM
HLA-B*51:01; [10]
  Kd: ≥ 20 µM
HLA-B*57:01; [10]
  Kd: ≥ 20 µM
HLA-B*46:01; [10]
  Kd: ≥ 20 µM
HLA-A*26:01; [10]
  Kd: ≥ 20 µM
HLA-B*27:03; [10]
  Kd: ≥ 20 µM

## REEAIRHVRA
HLA-B*44:03; [8]
  Kd: ≥ 45.9 µM
HLA-B*40:01; [8]
  Kd: 0.689 µM
HLA-B*44:02; [8]
  Kd: 18.8 µM
HLA-B*18:01 [3]; [8]
  Kd: ≥ 70.5 µM
HLA-B*45:01; [8]
  Kd: 0.0576 µM
HLA-B*40:02; [8]
  Kd: 3.33 µM

## TEAILQLGDL
HLA-B*44:03; [11]
  Kd: 4.3 µM
HLA-B*40:01; [11]
  Kd: 2.96 µM
HLA-B*44:02; [11]
  Kd: 2.48 µM
HLA-B*18:01 [3]; [11]
  Kd: 10.6 µM
HLA-B*45:01; [11]
  Kd: 13.3 µM
HLA-B*40:02; [11]
  Kd: 0.936 µM

## IDFYLCFLAF
HLA-B*44:03; [8]
  Kd: 0.0881 µM
HLA-B*40:01; [8]
  Kd: 0.839 µM
HLA-B*44:02; [8]
  Kd: 0.097 µM
HLA-B*18:01 [3]; [8]
  Kd: 1.56 µM
HLA-B*45:01; [8]
  Kd: 0.117 µM
HLA-B*40:02; [8]
  Kd: 16.7 µM

## KEEILGTVSW
HLA-B*44:03; [8]
  Kd: 0.0481 µM
HLA-B*40:01; [8]
  Kd: 19.5 µM
HLA-B*44:02; [8]
  Kd: 0.00447 µM
HLA-B*18:01 [3]; [8]
  Kd: 0.468 µM
HLA-B*45:01; [8]
  Kd: 2.81 µM
HLA-B*40:02; [8]
  Kd: 0.266 µM

Reference: the Immune Epitope Database (IEDB)
